The record followed here is the supplement of paper PMC5998384.

Data set [1] relates to HeLa Kyoto. Nature of the data set: solubility in G1/S (NP-40 vs SDS abundance) (log2 ratio); higher = more soluble. The note with it: cell cycle stage: G1/S.
Data set [2] relates to HeLa Kyoto. Nature of the data set: melting temperature (median over replicates), in situ; higher = more thermally stable.
Data set [3] relates to HeLa Kyoto. Nature of the data set: solubility change mitosis vs G1/S (difference of NP-40 vs SDS log2 ratios) (log2 ratio difference); higher = more soluble in mitosis.
The test system of data set [4] is HeLa Kyoto. Nature of the data set: thermal stability score vs G1/S (z-score of summed log2 fold changes over temperatures); higher = more thermally stable than in G1/S.
Setting [5] is: cell cycle stage: early G1 (4.5 h after nocodazole release).
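For melting temperature (median over replicates), in situ in this document: HeLa Kyoto cells synchronized by double thymidine or nocodazole block, proteins quantified by TMT10plex mass spectrometry, three independent biological replicates.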
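For solubility change mitosis vs G1/S (difference of NP-40 vs SDS log2 ratios) in this document: synchronized HeLa Kyoto cells (double thymidine block for G1/S, nocodazole release for mitosis), protein amounts in NP-40 versus SDS lysates quantified by mass spectrometry, three biological replicates.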
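For solubility in G1/S (NP-40 vs SDS abundance) in this document: HeLa Kyoto cells arrested at G1/S by double thymidine block, proteins quantified by TMT10plex mass spectrometry in mild NP-40 versus SDS extracts, three biological replicates.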
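For thermal stability score vs G1/S (z-score of summed log2 fold changes over temperatures) in this document: synchronized HeLa Kyoto cells, proteins quantified by TMT10plex mass spectrometry, three biological replicates, mitosis taken 0.5 h after nocodazole release, G1/S directly after double thymidine block.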

In the case of “MSEQSICQARAAVMVYDDANKKWVPAGGSTGFSRVHIYHHTGNNTFRVVGRKIQDHQVVINCAIPKGLKYNQATQTFHQWRDARQVYGLNFGSKEDANVFASAMMHALEVLNSQETGPTLPRQNSQLPAQVQNGPSQEELEIQRRQLQEQQRQKELERERLERERMERERLERERLERERLERERLEQEQLERERQERERQERLERQERLERQERLERQERLDRERQERQERERLERLERERQERERQEQLEREQLEWERERRISSAAAPASVETPLNSVLGDSSASEPGLQAASQPAETPSQQGIVLGPLAPPPPPPLPPGPAQASVALPPPPGPPPPPPLPSTGPPPPPPPPPLPNQVPPPPPPPPAPPLPASGFFLASMSEDNRPLTGLAAAIAGAKLRKVSRMEDTSFPSGGNAIGVNSASSKTDTGRGNGPLPLGGSGLMEEMSALLARRRRIAEKGSTIETEQKEDKGEDSEPVTSKASSTSTPEPTRKPWERTNTMNGSKSPVISRRDSPRKNQIVFDNRSYDSLHRPKSTPLSQPSANGVQTEGLDYDRLKQDILDEMRKELTKLKEELIDAIRQELSKSNTA [ENAH]”, in the data set with HeLa Kyoto [1], the “solubility in G1/S (log2)” value came to 0.13. The melting temperature was 51.7 °C in the data set with HeLa Kyoto [2] (cell cycle stage: G1/S) and 51.9 °C in the data set with HeLa Kyoto [2] (cell cycle stage: mitosis). Besides, the “solubility change mitosis (log2)” value in the data set with HeLa Kyoto [3] was 0.0923. The thermal stability score in the data set with HeLa Kyoto [4] (setting [5]) came to 2.28; with HeLa Kyoto [4] (cell cycle stage: mitosis) it was 8.8.
As for “MSEREERRFVEIPRESVRLMAESTGLELSDEVAALLAEDVCYRLREATQNSSQFMKHTKRRKLTVEDFNRALRWSSVEAVCGYGSQEALPMRPAREGELYFPEDREVNLVELALATNIPKGCAETAVRVHVSYLDGKGNLAPQGSVPSAVSSLTDDLLKYYHQVTRAVLGDDPQLMKVALQDLQTNSKIGALLPYFVYVVSGVKSVSHDLEQLHRLLQVARSLFRNPHLCLGPYVRCLVGSVLYCVLEPLAASINPLNDHWTLRDGAALLLSHIFWTHGDLVSGLYQHILLSLQKILADPVRPLCCHYGAVVGLHALGWKAVERVLYPHLSTYWTNLQAVLDDYSVSNAQVKADGHKVYGAILVAVERLLKMKAQAAEPNRGGPGGRGCRRLDDLPWDSLLFQESSSGGGAEPSFGSGLPLPPGGAGPEDPSLSVTLADIYRELYAFFGDSLATRFGTGQPAPTAPRPPGDKKEPAAAPDSVRKMPQLTASAIVSPHGDESPRGSGGGGPASASGPAASESRPLPRVHRARGAPRQQGPGTGTRDVFQKSRFAPRGAPHFRFIIAGRQAGRRCRGRLFQTAFPAPYGPSPASRYVQKLPMIGRTSRPARRWALSDYSLYLPL [TAF6L]”, in the data set on HeLa Kyoto [1], the “solubility in G1/S (log2)” value amounted to 0.0555. The melting temperature in the data set with HeLa Kyoto [2] (cell cycle stage: G1/S) is 49.3 °C; in the data set with HeLa Kyoto [2] (cell cycle stage: mitosis), 49.5 °C. Further, the “solubility change mitosis (log2)” value with HeLa Kyoto [3] is -0.115. For the same sequence, the thermal stability score stood at 0.603 with HeLa Kyoto [4] (setting [5]) and 1.02 in the data set with HeLa Kyoto [4] (cell cycle stage: mitosis).
As to “MSESFDCAKCNESLYGRKYIQTDSGPYCVPCYDNTFANTCAECQQLIGHDSRELFYEDRHFHEGCFRCCRCQRSLADEPFTCQDSELLCNDCYCSAFSSQCSACGETVMPGSRKLEYGGQTWHEHCFLCSGCEQPLGSRSFVPDKGAHYCVPCYENKFAPRCARCSKTLTQGGVTYRDQPWHRECLVCTGCQTPLAGQQFTSRDEDPYCVACFGELFAPKCSSCKRPIVGLGGGKYVSFEDRHWHHNCFSCARCSTSLVGQGFVPDGDQVLCQGCSQAGP [FHL3]”, the “solubility in G1/S (log2)” value with HeLa Kyoto [1] is -0.281. Moreover, the melting temperature was determined as 57.7 °C with HeLa Kyoto [2] (cell cycle stage: G1/S) and 56.8 °C with HeLa Kyoto [2] (cell cycle stage: mitosis). In addition, the “solubility change mitosis (log2)” value with HeLa Kyoto [3] was -0.184. The thermal stability score in the data set on HeLa Kyoto [4] (setting [5]) is 0.504; in the data set on HeLa Kyoto [4] (cell cycle stage: mitosis), -1.78.
As to “MSFDPNLLHNNGHNGYPNGTSAALRETGVIEKLLTSYGFIQCSERQARLFFHCSQYNGNLQDLKVGDDVEFEVSSDRRTGKPIAVKLVKIKQEILPEERMNGQVVCAVPHNLESKSPAAPGQSPTGSVCYERNGEVFYLTYTPEDVEGNVQLETGDKINFVIDNNKHTGAVSARNIMLLKKKQARCQGVVCAMKEAFGFIERGDVVKEIFFHYSEFKGDLETLQPGDDVEFTIKDRNGKEVATDVRLLPQGTVIFEDISIEHFEGTVTKVIPKVPSKNQNDPLPGRIKVDFVIPKELPFGDKDTKSKVTLLEGDHVRFNISTDRRDKLERATNIEVLSNTFQFTNEAREMGVIAAMRDGFGFIKCVDRDVRMFFHFSEILDGNQLHIADEVEFTVVPDMLSAQRNHAIRIKKLPKGTVSFHSHSDHRFLGTVEKEATFSNPKTTSPNKGKEKEAEDGIIAYDDCGVKLTIAFQAKDVEGSTSPQIGDKVEFSISDKQRPGQQVATCVRLLGRNSNSKRLLGYVATLKDNFGFIETANHDKEIFFHYSEFSGDVDSLELGDMVEYSLSKGKGNKVSAEKVNKTHSVNGITEEADPTIYSGKVIRPLRSVDPTQTEYQGMIEIVEEGDMKGEVYPFGIVGMANKGDCLQKGESVKFQLCVLGQNAQTMAYNITPLRRATVECVKDQFGFINYEVGDSKKLFFHVKEVQDGIELQAGDEVEFSVILNQRTGKCSACNVWRVCEGPKAVAAPRPDRLVNRLKNITLDDASAPRLMVLRQPRGPDNSMGFGAERKIRQAGVID [CSDE1]”, the “solubility in G1/S (log2)” value in the data set on HeLa Kyoto [1] was -0.15. Further, the melting temperature with HeLa Kyoto [2] (cell cycle stage: G1/S) is 47.6 °C; in the data set with HeLa Kyoto [2] (cell cycle stage: mitosis), 48.4 °C. For the same sequence, the “solubility change mitosis (log2)” value in the data set with HeLa Kyoto [3] was -0.111. Further, the values for the thermal stability score in the data set with HeLa Kyoto [4] (setting [5]) and in the data set on HeLa Kyoto [4] (cell cycle stage: mitosis) were 1.75 and 4.08, respectively.
“MSFLKSFPPPGPAEGLLRQQPDTEAVLNGKGLGTGTLYIAESRLSWLDGSGLGFSLEYPTISLHALSRDRSDCLGEHLYVMVNAKFEEESKEPVADEEEEDSDDDVEPITEFRFVPSDKSALEAMFTAMCECQALHPDPEDEDSDDYDGEEYDVEAHEQGQGDIPTFYTYEEGLSHLTAEGQATLERLEGMLSQSVSSQYNMAGVRTEDSIRDYEDGMEVDTTPTVAGQFEDADVDH [CLNS1A]”: in the data set with HeLa Kyoto [1], the “solubility in G1/S (log2)” value is -0.106. Moreover, the values for the melting temperature with HeLa Kyoto [2] (cell cycle stage: G1/S) and with HeLa Kyoto [2] (cell cycle stage: mitosis) were 51.7 °C and 52.6 °C, respectively. For the same sequence, the “solubility change mitosis (log2)” value in the data set with HeLa Kyoto [3] amounted to 0.0376. For the same sequence, the thermal stability score is -0.798 with HeLa Kyoto [4] (setting [5]) and -0.57 with HeLa Kyoto [4] (cell cycle stage: mitosis).
